Data on 29 molecules can be found in US20210388110A1 (published 2021).

Where a chain is given by its changes, count along the chain named. Values joined by “and” are separate entries in the source; they are usually repeats but may differ in a detail not shown here. Equal values may be shown once.

Test [1] addresses T1, soluble human CD3ε chain (human, UniProt P07766 23-126, limits assumed).
T1 construct: also called human CD3 epsilon chain
The experiment in a line: SPR (Biacore), soluble human CD3ε chain.

Test [2] addresses T2, soluble human GPC3 (human, UniProt P51654 25-563, limits assumed).
T2 construct: also called glypican 3
The experiment in a line: SPR (Biacore), single-arm antibody, soluble human GPC3.

T1 sequence (P07766 23-126 limits assumed): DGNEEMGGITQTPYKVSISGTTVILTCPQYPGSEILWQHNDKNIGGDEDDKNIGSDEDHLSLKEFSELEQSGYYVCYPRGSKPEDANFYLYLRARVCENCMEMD
T2 sequence (P51654 other isoform, or with tags, fused parts or gaps limits assumed, form in doubt): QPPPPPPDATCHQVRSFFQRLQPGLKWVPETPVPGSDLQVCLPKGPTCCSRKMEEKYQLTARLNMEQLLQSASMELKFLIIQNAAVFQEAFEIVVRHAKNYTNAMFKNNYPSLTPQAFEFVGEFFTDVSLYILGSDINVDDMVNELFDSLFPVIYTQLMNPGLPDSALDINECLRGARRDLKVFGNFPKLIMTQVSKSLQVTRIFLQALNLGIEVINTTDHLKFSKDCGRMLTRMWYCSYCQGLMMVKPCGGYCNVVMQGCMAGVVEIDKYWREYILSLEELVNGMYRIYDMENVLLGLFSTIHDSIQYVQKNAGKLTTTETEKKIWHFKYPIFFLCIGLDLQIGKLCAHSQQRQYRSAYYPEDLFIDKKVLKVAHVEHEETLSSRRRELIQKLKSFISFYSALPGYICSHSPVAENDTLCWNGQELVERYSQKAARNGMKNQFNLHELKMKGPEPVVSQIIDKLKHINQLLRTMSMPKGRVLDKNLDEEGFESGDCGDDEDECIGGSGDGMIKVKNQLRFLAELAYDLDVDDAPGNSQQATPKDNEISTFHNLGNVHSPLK

B1: rCE115H-E22Hh/none-Hi-Kn010G3/L0000-k0 (antibody, human IgG1, kappa, L234A L235A, N297A)
heavy: EVQLVETGGSLVQPGKSLKLTCATSGFTFSNAWMHWVRQSPEKQLEWVAQIKAKSNNYATYYAESVKGRFTISRDDSKSNIYLQMNSLKEEDTAVYYCRYVHYGAYYGVDAWGQGTSVTVSSASTKGPSVFPLAPSSKSTSGGTAALGCLVKDYFPEPVTVSWNSGALTSGVHTFPAVLQSSGLYSLSSVVTVPSSSLGTQTYICNVNHKPSNTKVDKKVEPKSCDKTHTCPPCPAPEAAGGPSVFLFPPKPKDTLMISRTPEVTCVVVDVSHEDPEVKFNWYVDGVEVHNAKTKPREEQYASTYRVVSVLTVLHQDWLNGKEYKCKVSNKALPAPIEKTISKAKGQPREPQVYTLPPSRCELTKNQVSLSCAVKGFYPSDIAVEWESNGQPENNYKTTPPVLDSDGSFFLVSKLTVDKSRWQQGNVFSCSVMHEALHNHYTQKSLSLSPDYKDDDDK
chain: EPKSSDKTHTCPPCPAPELLGGPSVFLFPPKPKDTLMISRTPEVTCVVVDVSHEDPEVKFNWYVDGVEVHNAKTKPREEQYNSTYRVVSVLTVLHQDWLNGKEYKCKVSNKALPAPIEKTISKAKGQPREPQVCTLPPSRDELTKNQVSLWCLVKGFYPSDIAVEWESNGQPENNYKTTPPVLDSDGSFFLYSKLTVDKSRWQQGNVFSCSVMHEALHNRYTQKSLSLSP
light: DIVMTQSPLSLPVTPGEPASISCRSSQSLVHSNRNTYLHWYQQKPGQAPRLLIYKVSNRFSGVPDRFSGSGSGTDFTLKISRVEAEDVGVYYCGQGTQVPYTFGQGTKLEIKRTVAAPSVFIFPPSDEQLKSGTASVVCLLNNFYPREAKVQWKVDNALQSGNSQESVTEQDSKDSTYSLSSTLTLSKADYEKHKVYACEVTHQGLSSPVTKSFNRGEC
notes: one-arm antibody (single Fab) with Fab-less hinge-Fc chain Hi-Kn010G3
B1 came in with a Kd in test [1] of 80 nM.

B2: rCE115H-E22Hh/none-Hi-Kn010G3/rCE115L-k0 (antibody, human IgG1, kappa, L234A L235A, N297A)
heavy: B1 heavy
chain: B1 chain
light: DVVMTQTPVSMSVSLGGQVSISCRSSQSLVHNNGNTYVSWYIQKPSQSPQLLIYKVSNRFSGISDRFSGSGSGTDFTLKISRVEPDDLGVYYCGQGTQDPYTFGAGTKLELKRTVAAPSVFIFPPSDEQLKSGTASVVCLLNNFYPREAKVQWKVDNALQSGNSQESVTEQDSKDSTYSLSSTLTLSKADYEKHKVYACEVTHQGLSSPVTKSFNRGEC
notes: one-arm antibody (single Fab) with Fab-less hinge-Fc chain Hi-Kn010G3; also called rCE115H-E22Hh//-Hi-Kn010G3/rCE115L-k0
As to B2, in test [1], the Kd was 124 nM and 138 nM.

B3: TR01H015-E22Hh/none-Hi-Kn010G3/TR01L006-k0 (antibody, human IgG1, kappa, L234A L235A, N297A)
heavy: QVQLVESGGGLVQPGRSLRLSCAASGFTFSNAWMHWVRQAPGKGLEWVAQIKGKSNNYATYYAESVKGRFTISRADSKNSIYLQMNSLKTEDTAVYYCRYVHYSASYGVDIWGQGTTVTVSSASTKGPSVFPLAPSSKSTSGGTAALGCLVKDYFPEPVTVSWNSGALTSGVHTFPAVLQSSGLYSLSSVVTVPSSSLGTQTYICNVNHKPSNTKVDKKVEPKSCDKTHTCPPCPAPEAAGGPSVFLFPPKPKDTLMISRTPEVTCVVVDVSHEDPEVKFNWYVDGVEVHNAKTKPREEQYASTYRVVSVLTVLHQDWLNGKEYKCKVSNKALPAPIEKTISKAKGQPREPQVYTLPPSRCELTKNQVSLSCAVKGFYPSDIAVEWESNGQPENNYKTTPPVLDSDGSFFLVSKLTVDKSRWQQGNVFSCSVMHEALHNHYTQKSLSLSPDYKDDDDK
chain: B1 chain
light: B1 light with R24Q, S25A, Q27E, Q42L, A48S, R50Q, L109V, K112E
notes: as for B1
B3: binding in test [1] was put at a Kd of 93 nM. In other words, the double-digit nanomolar range.

B4: rCE115H-E22Hh/none-Hi-Kn010G3/L0000vk1-k0 (antibody, human IgG1, kappa, L234A L235A, N297A)
heavy: B1 heavy
chain: B1 chain
light: DIQMTQSPSSLSASVGDRVTITCRSSQSLVHSNRNTYLHWYQQKPGKAPKLLIYKVSNRFSGVPSRFSGSGSGTDFTFTISSLQPEDIATYYCGQGTQVPYTFGQGTKVEIKRTVAAPSVFIFPPSDEQLKSGTASVVCLLNNFYPREAKVQWKVDNALQSGNSQESVTEQDSKDSTYSLSSTLTLSKADYEKHKVYACEVTHQGLSSPVTKSFNRGEC
notes: as for B1
For the molecule B4, the Kd in test [1] amounted to 85.2 nM.

B5: GCH032-G1dh/none-Hi-Kn010G3/L0000-k0 (antibody, human IgG1, kappa)
heavy: not shown
chain: B1 chain
light: B1 light
notes: single-arm antibody
For B5, in test [2], the Kd worked out at 5.74 nM.

B6: H0610-G1dh/none-Hi-Kn010G3/L0046-k0 (antibody, human IgG1, kappa)
heavy: not shown
chain: B1 chain
light: B1 light with S32V
notes: single-arm antibody
Regarding B6, in test [2], binding was put at a Kd of 5.45 nM. The Kd values of the last two molecules are within 1.5-fold of each other.

B7: GCH026-G1dh/none-Hi-Kn010G3/L0000-k0 (antibody, human IgG1, kappa)
heavy: not shown
chain: B1 chain
light: B1 light
notes: single-arm antibody
The molecule B7 showed a Kd in test [2] of 5.17 nM.

B8: GCH100-G1dh/none-Hi-Kn010G3/L0000-k0 (antibody, human IgG1, kappa)
heavy: not shown
chain: B1 chain
light: B1 light
notes: single-arm antibody
As to B8, in test [2], binding was characterised by a dissociation constant (Kd) of 5.39 nM. This Kd and that of the molecule before are within 1.5-fold of each other.

B9: GCH022-G1dh/none-Hi-Kn010G3/L0000-k0 (antibody, human IgG1, kappa)
heavy: not shown
chain: B1 chain
light: B1 light
notes: single-arm antibody
In the case of B9, in test [2], the affinity, expressed as Kd, was 4.92 nM.

B10: H0610-G1dh/none-Hi-Kn010G3/L0062-k0 (antibody, human IgG1, kappa)
heavy: not shown
chain: B1 chain
light: B1 light with N35D
notes: single-arm antibody
In the case of B10, the Kd in test [2] came to 5.28 nM.

B11: H0610-G1dh/none-Hi-Kn010G3/L0043-k0 (antibody, human IgG1, kappa)
heavy: not shown
chain: B1 chain
light: B1 light with S32N
notes: single-arm antibody
Regarding B11, in test [2], binding was put at a Kd of 5.14 nM.

B12: GCH003-G1dh/none-Hi-Kn010G3/L0000-k0 (antibody, human IgG1, kappa)
heavy: not shown
chain: B1 chain
light: B1 light
notes: single-arm antibody
With B12, in test [2], binding was put at a Kd of 5.2 nM.

B13: GCH055-G1dh/none-Hi-Kn010G3/L0000-k0 (antibody, human IgG1, kappa)
heavy: not shown
chain: B1 chain
light: B1 light
notes: single-arm antibody
For B13, in test [2], binding was put at a Kd of 5.6 nM.

B14: GCH005-G1dh/none-Hi-Kn010G3/L0000-k0 (antibody, human IgG1, kappa)
heavy: not shown
chain: B1 chain
light: B1 light
notes: single-arm antibody
For the molecule B14, the Kd in test [2] was 5.32 nM.

B15: GCH057-G1dh/none-Hi-Kn010G3/L0000-k0 (antibody, human IgG1, kappa)
heavy: not shown
chain: B1 chain
light: B1 light
notes: single-arm antibody
The molecule B15 came in with a Kd in test [2] of 5.61 nM.

B16: GCH054-G1dh/none-Hi-Kn010G3/L0000-k0 (antibody, human IgG1, kappa)
heavy: not shown
chain: B1 chain
light: B1 light
notes: single-arm antibody
The molecule B16 registered a Kd in test [2] of 5.3 nM.

B17: GCH068-G1dh/none-Hi-Kn010G3/L0000-k0 (antibody, human IgG1, kappa)
heavy: not shown
chain: B1 chain
light: B1 light
notes: single-arm antibody
Take B17: the dissociation constant Kd in test [2] came out at 6.23 nM. The Kd values of the last two molecules are within 1.5-fold of each other.

B18: GCH094-G1dh/none-Hi-Kn010G3/L0000-k0 (antibody, human IgG1, kappa)
heavy: not shown
chain: B1 chain
light: B1 light
notes: single-arm antibody
B18 gave a Kd in test [2] of 5.89 nM.

B19: H0610-G1dh/none-Hi-Kn010G3/L0063-k0 (antibody, human IgG1, kappa)
heavy: not shown
chain: B1 chain
light: B1 light with N35E
notes: single-arm antibody
In turn, B19 showed a Kd in test [2] of 6.03 nM. The Kd values of the last two molecules are within 1.5-fold of each other.

B20: GCH012-G1dh/none-Hi-Kn010G3/L0000-k0 (antibody, human IgG1, kappa)
heavy: not shown
chain: B1 chain
light: B1 light
notes: single-arm antibody
Turning to B20, the Kd in test [2] was found to be 5.4 nM.

B21: GCH061-G1dh/none-Hi-Kn010G3/L0000-k0 (antibody, human IgG1, kappa)
heavy: not shown
chain: B1 chain
light: B1 light
notes: single-arm antibody
B21 displayed a Kd in test [2] of 5.13 nM.

B22: GCH008-G1dh/none-Hi-Kn010G3/L0000-k0 (antibody, human IgG1, kappa)
heavy: not shown
chain: B1 chain
light: B1 light
notes: single-arm antibody
With B22, the Kd in test [2] amounted to 5.55 nM.

B23: GCH059-G1dh/none-Hi-Kn010G3/L0000-k0 (antibody, human IgG1, kappa)
heavy: not shown
chain: B1 chain
light: B1 light
notes: single-arm antibody
In test [2], B23 yielded a Kd of 5.7 nM.

B24: GCH023-G1dh/none-Hi-Kn010G3/L0000-k0 (antibody, human IgG1, kappa)
heavy: not shown
chain: B1 chain
light: B1 light
notes: single-arm antibody
In test [2], B24 yielded a Kd of 4.94 nM.

B25: GCH067-G1dh/none-Hi-Kn010G3/L0000-k0 (antibody, human IgG1, kappa)
heavy: not shown
chain: B1 chain
light: B1 light
notes: single-arm antibody
B25 had a dissociation constant Kd in test [2] of 5.24 nM. This Kd and that of the molecule before are within 1.5-fold of each other.

B26: GCH034-G1dh/none-Hi-Kn010G3/L0000-k0 (antibody, human IgG1, kappa)
heavy: not shown
chain: B1 chain
light: B1 light
notes: single-arm antibody
On to B26, for which the dissociation constant (Kd) in test [2] is 5.09 nM. This Kd and that of the molecule before are within 1.5-fold of each other.

B27: GCH056-G1dh/none-Hi-Kn010G3/L0011-k0 (antibody, human IgG1, kappa)
heavy: not shown
chain: B1 chain
light: B1 light with S28P
notes: single-arm antibody
B27: the Kd in test [2] was found to be 4.31 nM.

B28: GCH056-G1dh/none-Hi-Kn010G3/L0000-k0 (antibody, human IgG1, kappa)
heavy: not shown
chain: B1 chain
light: B1 light
notes: single-arm antibody
In the case of B28, the Kd in test [2] was 5.03 nM.

B29: GCH025-G1dh/none-Hi-Kn010G3/L0000-k0 (antibody, human IgG1, kappa)
heavy: not shown
chain: B1 chain
light: B1 light
notes: single-arm antibody
In the case of B29, binding in test [2] was characterised by a dissociation constant (Kd) of 5.05 nM.

A word on the Kd: it is a measure of binding affinity in units of concentration. Read a low Kd as higher affinity.
